{
  "source": "patent US20040171019A1",
  "about": "“PIN1 peptidyl-prolyl isomerase polypeptides, their crystal structures, and use thereof for drug design” (Agouron Pharmaceuticals, Inc., priority 2002, published 2004)",
  "biological_target": "6His-PPIase domain of PIN1 (human) (UniProt Q13526)",
  "experiment": "fluorescence polarization competition; free Pintide displaces fluorescein-tagged Pintide from the 6His-PPIase domain of PIN1",
  "data": [
    {"substance": "Pintide (WFYpSPFLE) without the fluorescein tag (peptide)", "values": [
      {"measurement": "IC50", "value": "7 to 10", "unit": "µM"}
    ]}
  ]
}
